Source: patent US20230258640

Biological target: T1, TCPP-labelled peptide cleavage sequence for MMP-1 (GAGVPMS-MRGGAG) tethered to carboxygraphene-polyethylenimine
T1 chain: GAGVPMSMRGGAG

B1: Matrix-Metalloproteinase-1 (protein)
chain: FVLTEGNPRWEQTHLTYRIENYTPDLPRADVDHAIEKAFQLWSNVTPLTFTKVSEGQADIMISFVRGDHRDNSPFDGPGGNLAHAFQPGPGIGGDAHFDEDERWTNNFREYNLHRVAAHELGHSLGLSHSTDIGALMYPSYTFSGDVQLAQDDIDGIQAIYGRSQNPVQPIGPQTPKACDSKLTFDAITTIRGEVMFFKDRFYMRTNPFYPEVELNFISVFWPQLPNGLEAAYEFADRDEVRFFKGNKYWAVQGQNVLHGYPKDIYSSFGFPRTVKHIDAALSEENTGKTYFFVANKYWRYDEYKRSMDPGYPKMIAHDFPGIGHKVDAVFMKDGFFYFFHGTRQYKFDPKTKRILTLQKANSWFNCRKN
estimated limit of detection (LOD): femtomolar protease activities can be detected | fluorescence signal of released TCPP after 60 min incubation at 37 C: the intensity of the detected signal is proportional to concentration of enzyme
